System: MS2 coat protein
Assay: apparent KD of MS2 coat protein; higher = weaker reporter binding
Details: Eterna round: R107
Protocol: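 RNA-MaP round R107: designed RNA switches with theophylline, tryptophan, arginine or FMN aptamers are transcribed on-chip within common flanks. They are titrated with SNAP-549-labelled MS2 coat protein in RNA-MaP buffer (100 mM Tris pH 7.5, 80 mM KCl, 4 mM MgCl2), without ligand or with the indicated ligand. Median apparent KD per design.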

[1] = input ligand: theophylline 20 uM
[2] = input ligand: theophylline 2 mM
[3] = input ligand: tryptophan 2.4 mM

Sequence	apparent KD of MS2 coat protein (input ligand: arginine 13.2 mM) [nM]	apparent KD of MS2 coat protein (input ligand: none) [nM]	apparent KD of MS2 coat protein [1] [nM]	apparent KD of MS2 coat protein [2] [nM]	apparent KD of MS2 coat protein [3] [nM]
AAGACUGGACAUAAGUCCAGUCAACCUGAAGGAGCGGGUGGGUGCCCAGGUAGGUCGCGGGAACAUGAGGAUCACCCAUGUAUAA [ArgAS 5 #BothOrNeither #OpenEnded]	17.4	25.8	16.9	31.9	24.6
AAGACAUGAGGAUCACCCAUGUCGUCUACACGAGGACCGGUACGGCCGCCACUCGUUUGCCAAUGAGCGCAUGCGGCCUGGGUAU [Exclusion Tryp A GF3]	13.2		17.9	16.3	
GGACCAGGGAGCGAUACCAGCUUGAGUGUGCUGGCCAGGCACAUGAGGAUCACCCAUGUAGGCCCUUGGCAGCGCUCCCUGGUCC [#1 Exclusion - Theophylline B Attempt #28 (HarryS)]	9.06	9.45	16.5	12.3	14.1
GGUCUCGAGAGCGAUACCAGCUUGAUCGUACUGGCCUGGUACAUGAGGAUCACCCAUGUAAGCCCUUGGCAGCGCUCUCGAGACC [#1 Exclusion - Theophylline B Attempt #7 (HarryS)]	9.53	11.4	15.6	30.1	14
UGCAUUAUACAUGGAUCACCCAUGUAGACACGAGGACCGGUACGGCCGCCACUCGGAAGAGGGAACAUGAGGAUCACCCAUGUGA [Try A SS t1]	25.6		73.1	55	
AGAUUCGACACGGCCGCCACUCGUGACGGAUUUCCGAGUGUCGAACAUGAGGAUCACCCAUGUCCGAGGACCGGGUGUUGAGUCU [XTryp B #12]	33.7		43.8	55.9	
ACAUGAGGAUCACCCAUGUGAAGGCACGAUACCAGCUGAUCCCGUGGCCCUUGGCAGCGUCCGGUGUGGUCCGGCGGGUGGGACG [bbvmullin]	25.8	29	75.4	50.3	24.4
AAUAAUAAGGCGGCCGCCACUAAACAUGAGGAUCACCCAUGUCUCGCGGGCUUGCGUUGGGAAAGUAGGACCGGGCCAAUAAUAA [Exclusion - Tryptophan B (Freestyle 8)]	16	15.7	20.6	14.7	14.4
AGUUCCAGGUCGGCCGCCACUGGCAUGGCCGGUCCUCGGACUUACAUGAGGAUCACCCAUGUGAACAGGACCGGGACCGCAUGGG [Exclusion Tryptophan B GF 24]	26.1		46.1	57.2	
ACAUGAGGAUCACCCAUGUCAAGGCACGAUACCAGCUGAUCCCGUGGCCCUUGGCAGCGUCACGUUUGGUCCCGCGGAUGACACG [zczmullin]	38.4		111		86.9
GCUGCCAUACGAAGGAGCGCUGUUGCAAUGAGGCGAACAUGAGGAUCACCCAUGUGGCAGCAGCAGGUAGGUCGCGUAUGGCAGC [EAB #12]	33.4	42.5	53.6	52.7	44.2
ACAUGAGGGAUGGAUACCAGCGACAUGAGGAUCACCCAUGUAUGAGGAUCAGCCAUGUUAUGCCCUUGGCAGCCACGAACAUGAG [ACFMULLIN]	26.2	35.6	103	235	37.2
UUAUUUAUAUUAGAUACCAGUUUAAUGGCCGCAAAUCCUGACAUGAGGAUCACCCAUGUAAGCCCUUGGCAGCUGGUAUGGGUUU [XTheo B #26]	25.2		25.2		20.5
ACCGCAUCCGUAUAGGAUGCGGCCCAUGAAGGAGCGUGGGAAACCACAGGUAGGUCGCAUGACAUGAGGAUCACCCAUGUUUAUU [Matrix]	27.8	44.2	52.7	40.9	33.9
AAGGUAUCACAGACAUGGGUGUACUGUGAUACCAGCUAGGAAACUAGCCCUUGGCAGCACAUGAGGAUCACCCAUGUAAGAAUAA [(T)'-(M)'-(T1)-(T2)-(M1)-(M2)_Design4_2/19/17]	34		94.9		53.8
AAUUAUCAGUCGGCCGCCACUGACACAUGAGGAUCACCCAUGUAACAUGGGUAAAAUUAACUGAACAGGACCGGGACAAAGGCUA [JR_ExcTryptoB_Sub008]	179		671	740	
AAACGUUGCUGCGAUACCAGACAUGAGGAUCACCCAUGUACCAAGAAAACGUACAUAAAUGUCCCUUGGCAGCGCAGCAACGAAA [MAT - Exclusion Theophlline B - Mod of Eli - D28]	141		511		635
UUAAUGGAGCUUUAAUUUACGAUUUCUGAUACCAGUGUUUCAUUUCACCCUUGGCAGCAGUGACAUGAGGAUCACCCAUGUAAUA [JR_Nu_SSTheophyA_Sub022]	23.7		35.5		26.4

Sequence	apparent KD of MS2 coat protein (input ligand: arginine 13.2 mM) [nM]	apparent KD of MS2 coat protein (input ligand: none) [nM]	apparent KD of MS2 coat protein [1] [nM]	apparent KD of MS2 coat protein [2] [nM]	apparent KD of MS2 coat protein [3] [nM]
AUCAUAAUAGACUCGUUAGAUUAUAUGGAACGAGGACCGGUACGGCCGCCACUCGUGAUGUACAUGAGGAUCACCCAUGUUAGCU [JR_Nu_SSTryptoA_Sub025]	15.2		18.8	17	
AUCGUACCUGAUGAUACCAGCAUGUGAUCGUAACAUGAGGAUCACCCAUGUGAUCAGUGAUGCCCUUGGCAGCAUGAUCGGUACA [Same State - Theophylline B (Freestyle 15)]	36.6		35.8		36.7
UGUAUGGACUGAAGGAGCGGGUAAUAAACCUGAGGAUCACCCAGGUAAUAGGCGAAAGCCACCCAGGUAGGUCGCAGUCCAUACU	9.98	14.1	16.1	15.1	13.2
AAUGUGAAGGCGGCCGCCACUGAUAAUAGACAUGAGGAUCACCCAUGUAUAAAUCCUCAAUAAGACAGGACCGGGCCAACUACGU [Exclusion Tryptophan B GF 1]	93		114	136	
ACAUGAGGAUCACCCAUGUAAUACCGGGAAGGAGCGCGUAAGGACGCAGGUAGGUCGCUCGGCGUCCGGCCGCAAGGCCGGACGA [#1 Same State - Arginine A Attempt #12 (HarryS)]	21	14.4	24.3	10.7	14.7
GGUUGAUAUAUAUAUAUAUUGAUUACUGAAGGAGCGGGAAAUAACCCAGGUAGGUCGCAGAGAUCCACAUGAGGAUCACCCAUGU [!0.F]	31.9	42.7	50.4	60.5	56.9
CCGUUUUAUGGCGACAUAGGGCGGACUGAAGGAGCGGUGAAUAAGCCAGGUAGGUCGCAGAGAUCCACAUGAGGAUCACCCAUGU [!0.aD]	322	52.6	62.2	63.5	77.5
CAAUAAGUACCGGUCCUCAGAUCCUCAUGACGAGGACCGGUACGGCCGCCACUCGAAACAUGAGGAUCACCCAUGUAAUAAUAAU [Brourdmod01]	15.3		31.4	24.2	
GGCACACAUGAGGAUCACCCAUGUGGCGAUACCAGUUGAUGGUAAAACCCUUGGCAGCGCCAGUCACAUGCAGAUAGUUACUGAA [theeternabot_sameState_MS2_Theo_A_32]	14.2		19.4		15.8
AUGUCGUUGAAUAUAGCGGCUUGGAGUGAUACCAGAAUGAUCCAAUUCCCUUGGCAGCAUUACAUGAGGAUCACCCAUGUUCCAG [SSTheo A #23]	24.1	37.1	55.5	89.6	48.6
GGUACAUGAGGAUCACCCAUGUAUGGGUACCGAGGACCGGUACGGCCGCCACUCGCAGGACAUGAGGAUCACCCAUGUGCAACCG [SSTA DOUBLE!!! :-D #11]	61	142	144	184	312
AUUUGGCGUAGUGUUGCUCGUGGGAUAAAACGAGGACCGGUACGGCCGCCACUCGAUGAUUAACAUGAGGAUCACCCAUGUAAAU [theeternabot_exclusion_MS2_Trp_A_22]	17.5		30.6	32.2	
ACAUGAGGAUCACCCAUGUAAAUAACGGAAGGAGCGUGCAAAAGCACAGGUAGGUCGCCGAUAUAAAUAUUGGGUAAUAUAUUAU [ExyArgA#1]	25	34.2	41.5	28.2	28
AACAACAAGGGAAGGAGCGCGAAUAAUAAACAUGAGGAUCACCCAUGUAUCAUGGGCUUAACGCAGGUAGGUCGCCCACAAACAA [Exclusion Arginine B GF1]	34	37.9	47.2	49.4	40.6
CAGGUUAGGGCGGCCGCCACUGUGGCUACGGUACAUGAGGAUCACCCAUGUUUGUGGUUGAUCUACAGGACCGGGCCCUGACACG [Matidier]	48.9	236	145	665	272
AACGAGUGGCGGCCAUUGGGUGAUCCUCUACGAGGACCGGUACGGCCGCCACUCGAUAACAUGAGGAUCACCCAUGUGCCGAUAA [|T'-M'-Trp-Ms2|_Design10b]	42.3		164	240	
GAUCUUGCGGGCGCCCGCAAGGUUGCGGAUACCAGCGAGAUUAAUCGCCCUUGGCAGCCGAACAUGAGGAUCACCCAUGUCGGAC [Same State - Theophylline A Attempt #2 (HarryS)]	8.92		11.5		10.5
